# Reference: patent US11542480B2
# Positions count from the first letter of the chain named.
# B1: Geobacillus kaustophilus HTA426 wild-type glycine oxidase (WT-GOX), SEQ ID NO: 1 (Geobacillus kaustophilus HTA426) (protein)
# chain: MTHRYDVAIVGGGVIGAAIGFELAKRRHRVAIFEKGTMGSGASSAAAGMLGAQSEFSTSSPLVPLALQSRALMPALAEELRERTGIDIGLVEKGLIKLATTEEEADDLYRHYTFWRGIGEPVQWLTKGEALEMEPRLAAEALAGAMYIPGDGQVSAPDLAAALAYAAASAGACLYEYTEVFDIRSDSSGHVLDTTGGTFAAEAVVIASGAWAARLGARVGLSLSVYPVKGECVMVRAPVPLLQTTVFAKNGCYIVPKSGNRLLIGATSTPGTFDRRVSAGGVMNLLHRAAHLVPDIEQAEWVASWSGIRPQTEDGLPYLGEHPERRGLFVAAGHYRNGILLSPLTGLLVADLVERKETAFDLAPFSLTRHIGKVGVE
# B2: Geobacillus kaustophilus HTA426 glycine oxidase variant V-GOX1, 251st glycine of SEQ ID NO: 1 substituted with glutamine (Gly251Gln; SEQ ID NO: 3 with Xaa251 = … (protein)
# chain: B1 chain with G251Q
# Assays:
# [1] = substrate: NCC(=O)O; assay: purified protein, by the assay type; assay type: biochemical, Geobacillus kaustophilus HTA426; conditions: other: substrate glycine, 37° C., pyrophosphate, pH 8.5, WT-GOX, 60.0 °C
# From the text: HTA426 is available, for example, from the National Research and Development Agency, RIKEN BioResource Research Center (RIKEN BRC) Microbe Division (JCM) (JCM12893).
# However, a plasmid vector of pET-15b was used as a vector, and E. coli BL21 (DE3) was used as a host cell (host).
# For convenience of explanation, the wild-type glycine oxidase is abbreviated as “WT-GOX”.
# [2] = substrate: NCC(=O)O; assay: purified protein, by the assay type; assay type: biochemical, Geobacillus kaustophilus HTA426; conditions: other: substrate glycine, 37° C., pyrophosphate, pH 8.5, purified V-GOX1, 70.0 °C
# Description: For convenience of explanation, the mutant glycine oxidase is abbreviated as “V-GOX” in this example.
# The enzyme activity in Table 2 is shown as the ratio (times) of the enzyme reaction rate (use of crude enzyme solution) of V-GOX when WT-GOX is used as reference (1).
# Therefore, after purifying this V-GOX1, the molecular weight (SDS-PAGE), the optimum temperature, the optimum pH, thermal stability, pH stability, the specific activity, and the kinetic constant Km were evaluated. The results of the specific activity, thermal stability, and the kinetic constant Km are shown in Table 1 above, the specific activity is shown in FIG. 3A, and thermal stability is shown in FIG. 3B, and further, evaluation results of enzyme properties of V-GOX1 containing them are also shown in Table 3 together with the conditions.
Protein,Km [1] [mM mM],Km [2] [mM mM]
B1,0.25,
B2,,0.20
